Experimental data taken from patent publication US20240309056A1 (NAVIGO PROTEINS, published 2024).
Where a chain is given by its changes, count along the chain named.

B1: SEQ ID NO: 2 (designed binder)
chain: AMDDFAQYSAWAEIEALPNLTEMQKDQFIWSLMFDPSVSKEVLGEAQKLNDSQAPK
notes: also called 187029 del2N
B2: SEQ ID NO: 2_A16H (designed binder)
chain: B1 chain with A16H
B3: SEQ ID NO: 2_D3F (designed binder)
chain: B1 chain with D3F
B4: SEQ ID NO: 2_K25R (designed binder)
chain: B1 chain with K25R
B5: SEQ ID NO: 2_M23E (designed binder)
chain: B1 chain with M23E
B6: SEQ ID NO: 2_Y8Q (designed binder)
chain: B1 chain with Y8Q
B7: SEQ ID NO: 2_F5E (designed binder)
chain: B1 chain with F5E
B8: SEQ ID NO: 2_M2K (designed binder)
chain: B1 chain with M2K
B9: SEQ21 trimer (215997) (designed binder)
chain: NAARSDEAQYSAWAEIEALPNLTEMQKDQFIWSLMFDPSVSKEVLGEAQKLNDSQAPKQAPKVDAKFDQAPKVDAKFDNAARSDEAQYSAWAEIEALPNLTEMQKDQFIWSLMFDPSVSKEVLGEAQKLNDSQAPKQAPKVDAKFDQAPKVDAKFDNAARSDEAQYSAWAEIEALPNLTEMQKDQFIWSLMFDPSVSKEVLGEAQKLNDSQAPKC
B10: SEQ1 trimer (216000) (designed binder)
chain: B9 chain with R4M, S5D, E7F, R82M, S83D, E85F, R160M, S161D, E163F
B11: SEQ 21 tetramer (215998) (designed binder)
chain: NAARSDEAQYSAWAEIEALPNLTEMQKDQFIWSLMFDPSVSKEVLGEAQKLNDSQAPKQAPKVDAKFDQAPKVDAKFDNAARSDEAQYSAWAEIEALPNLTEMQKDQFIWSLMFDPSVSKEVLGEAQKLNDSQAPKQAPKVDAKFDQAPKVDAKFDNAARSDEAQYSAWAEIEALPNLTEMQKDQFIWSLMFDPSVSKEVLGEAQKLNDSQAPKQAPKVDAKFDQAPKVDAKFDNAARSDEAQYSAWAEIEALPNLTEMQKDQFIWSLMFDPSVSKEVLGEAQKLNDSQAPKC
B12: SEQ1 tetramer (216001) (designed binder)
chain: NAAMDDFAQYSAWAEIEALPNLTEMQKDQFIWSLMFDPSVSKEVLGEAQKLNDSQAPKQAPKVDAKFDQAPKVDAKFDNAAMDDFAQYSAWAEIEALPNLTEMQKDQFIWSLMFDPSVSKEVLGEAQKLNDSQAPKQAPKVDAKFDQAPKVDAKFDNAAMDDFAQYSAWAEIEALPNLTEMQKDQFIWSLMFDPSVSKEVLGEAQKLNDSQAPKQAPKVDAKFDQAPKVDAKFDNAAMDDFAQYSAWAEIEALPNLTEMQKDQFIWSLMFDPSVSKEVLGEAQKLNDSQAPKC
B13: SEQ21 dimer (215996) (designed binder)
chain: NAARSDEAQYSAWAEIEALPNLTEMQKDQFIWSLMFDPSVSKEVLGEAQKLNDSQAPKQAPKVDAKFDQAPKVDAKFDNAARSDEAQYSAWAEIEALPNLTEMQKDQFIWSLMFDPSVSKEVLGEAQKLNDSQAPKC
B14: SEQ1 dimer (215999) (designed binder)
chain: B13 chain with R4M, S5D, E7F, R82M, S83D, E85F
B15: affinity ligand 187029 (designed binder)
chain: NAAMDDFAQYSAWAEIEALPNLTEMQKDQFIWSLMFDPSVSKEVLGEAQKLNDSQAPK
notes: Artificial mosaic protein of Protein A-like structure
B16: affinity ligand 187028 (designed binder)
chain: B15 chain with M4R, D5S, F7E

Experiments:
ubiquitin mutein 77404 [1] = target: T1, ubiquitin mutein 77404; assay: SPR; SEQ ID NO: 2, unmutated
T1 construct: also called Affilin-77404
Method: (§1) Purified proteins were immobilized via C-terminal Cysteine on a CM-5 sensor chip (GE Healthcare) using NHS/EDC after PDEA activation with a Biacore 3000 system (GE Healthcare). The chip was equilibrated with SPR running buffer (PBS 0.05% Tween pH 7.3). Soluble ubiquitin muteins (Affilin® proteins) applied to the chip in serial dilutions (different concentrations) with a flow rate of 30 μl/min. The association was performed for 120 seconds and the dissociation for 120 seconds. After each run, the chip surface was regenerated with 30 μl regeneration buffer (10 mM glycine pH 2.0) and equilibrated with running buffer. Affilin® proteins accumulated on the surface increasing the refractive index. This change in the refractive index was measured in real time and plotted as response or resonance units versus time.
(§2) Binding studies were carried out using the BIAcore 3000 (GE Healthcare); data evaluation was operated via the BIAevaluation 3.0 software, provided by the manufacturer, by the use of the Langmuir 1:1 model (RI=0). Evaluated dissociation constants (KD) were standardized against the immobilized protein and indicated. Shown is the change in refractive index measured in real time and plotted as response or resonance unit [RU] versus time [sec] (see Table 2).

ubiquitin mutein 77404 [2] = target: T1, ubiquitin mutein 77404; assay: SPR; point mutant A16H
Method: as §1, §2

ubiquitin mutein 77404 [3] = target: T1, ubiquitin mutein 77404; assay: SPR; point mutant D3F
Method: as §1, §2

ubiquitin mutein 77404 [4] = target: T1, ubiquitin mutein 77404; assay: SPR; point mutant K25R
Method: as §1, §2

ubiquitin mutein 77404 [5] = target: T1, ubiquitin mutein 77404; assay: SPR; point mutant M23E
Method: as §1, §2

ubiquitin mutein 77404 [6] = target: T1, ubiquitin mutein 77404; assay: SPR; point mutant Y8Q
Method: as §1, §2

ubiquitin mutein 77404 [7] = target: T1, ubiquitin mutein 77404; assay: SPR; point mutant F5E
Method: as §1, §2

ubiquitin mutein 77404 [8] = target: T1, ubiquitin mutein 77404; assay: SPR; point mutant M2K
Method: as §1, §2

ubiquitin mutein 77404 [9] = target: T1, ubiquitin mutein 77404; assay: SPR (Biacore 3000), ligand multimer immobilised, ubiquitin mutein in solution
Method: as §1, §2

ubiquitin mutein 211883 [10] = target: T2, ubiquitin mutein 211883; assay: as above
T2 construct: also called Affilin-211883
Method: as §1, §2

ubiquitin mutein 200053 [11] = target: T3, ubiquitin mutein 200053; assay: as above
T3 construct: also called Affilin-200053
Method: as §1, §2

ubiquitin mutein 77404 [12] = target: T1, ubiquitin mutein 77404; assay: SPR (Biacore 3000), ligand immobilised via C-terminal Cys on CM-5, ubiquitin mutein in solution, Langmuir 1:1
Method: as §1, §2

ubiquitin mutein 211883 [13] = target: T2, ubiquitin mutein 211883; assay: as above
Method: as §1, §2

ubiquitin mutein 139819 = target: T4, ubiquitin mutein 139819; assay: as above
T4 construct: Monomer with an insertion of 6 amino acids between positions 9 and 10 of ubiquitin; also called Affilin-139819
Method: as §1, §2

ubiquitin mutein 200053 [14] = target: T3, ubiquitin mutein 200053; assay: as above
Method: as §1, §2

ubiquitin mutein 77404 [15] = target: T1, ubiquitin mutein 77404; assay: SPR (Biacore 3000), ligand immobilised, ubiquitin mutein in solution; Table 1 run; ligand on the chip, Affilin-77404 in solution
Method: as §1, §2

Row | Binder | Kd (ubiquitin mutein 77404 [9]) [nM] | Kd (ubiquitin mutein 211883 [10]) [nM] | Kd (ubiquitin mutein 200053 [11]) [nM] | other results
1 | B1 | – | – | – | Kd (ubiquitin mutein 77404 [1]): < 0.5 nM
2 | B2 | – | – | – | Kd (ubiquitin mutein 77404 [2]): < 0.5 nM
3 | B3 | – | – | – | Kd (ubiquitin mutein 77404 [3]): < 0.5 nM
4 | B4 | – | – | – | Kd (ubiquitin mutein 77404 [4]): < 0.5 nM
5 | B5 | – | – | – | Kd (ubiquitin mutein 77404 [5]): < 0.5 nM
6 | B6 | – | – | – | Kd (ubiquitin mutein 77404 [6]): < 0.5 nM
7 | B7 | – | – | – | Kd (ubiquitin mutein 77404 [7]): < 0.5 nM
8 | B8 | – | – | – | Kd (ubiquitin mutein 77404 [8]): < 0.5 nM
9 | B9 | 0.4 | 73.4 | 8.5 | –
10 | B10 | 0.3 | 56.2 | 6.5 | –
11 | B11 | 0.05 | 95.7 | 8.3 | –
12 | B12 | 0.6 | 93.1 | 6.5 | –
13 | B13 | 0.16 | 78.1 | 5.5 | –
14 | B14 | 0.1 | 55.6 | – | –
15 | B15 | – | – | – | Kd (ubiquitin mutein 77404 [12]): 1.3 nM; Kd (ubiquitin mutein 211883 [13]): 52.9 nM; Kd (ubiquitin mutein 139819): 75.5 nM; Kd (ubiquitin mutein 200053 [14]): 5.9 nM; Kd (ubiquitin mutein 77404 [15]): < 0.5 nM
16 | B16 | – | – | – | Kd (ubiquitin mutein 77404 [12]): 0.6 nM; Kd (ubiquitin mutein 211883 [13]): 66.2 nM; Kd (ubiquitin mutein 139819): 47.3 nM; Kd (ubiquitin mutein 200053 [14]): 2.5 nM
